Measured values: article PMC2932750 (Biochemistry, 2010)
Where no end group is shown, it is not given here.

What follows are binders tested against T1, EphA2 ligand-binding domain fused to human Fc (EphA2 Fc) (UniProt P29317 24-537) (assay: ELISA).
T1 sequence (P29317 24-537): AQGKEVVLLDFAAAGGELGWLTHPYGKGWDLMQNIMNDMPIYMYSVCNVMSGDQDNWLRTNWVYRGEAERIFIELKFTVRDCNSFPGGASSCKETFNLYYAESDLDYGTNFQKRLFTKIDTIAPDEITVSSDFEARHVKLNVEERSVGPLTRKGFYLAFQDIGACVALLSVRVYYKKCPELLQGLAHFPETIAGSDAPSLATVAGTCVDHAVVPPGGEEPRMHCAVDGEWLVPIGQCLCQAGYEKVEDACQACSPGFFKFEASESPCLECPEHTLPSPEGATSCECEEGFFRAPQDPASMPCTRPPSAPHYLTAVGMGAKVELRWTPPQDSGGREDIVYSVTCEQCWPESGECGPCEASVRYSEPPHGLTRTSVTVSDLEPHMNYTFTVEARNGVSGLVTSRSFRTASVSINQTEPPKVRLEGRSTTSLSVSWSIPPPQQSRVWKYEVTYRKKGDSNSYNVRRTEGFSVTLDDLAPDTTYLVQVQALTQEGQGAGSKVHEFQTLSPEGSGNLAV

IC50 [µM]	Binder
> 100	YSAAPDSVPMMS (C-terminal amide if made in house) [Ala-4 peptide (YSA-12mer with alanine at position 4)]

Molecular target: T1, EphA2 ligand-binding domain fused to …
Assay: ELISA
Remark: another data set of the same source

Binder	IC50 [µM]
YSAFPDSVPMMS (C-terminal amide if made in house) [YSAF-12mer]	47
YSAYPDSVPC (also: homodimer, disulfide between C-terminal cysteines of the two chains) [dimerized YSA-C-10mer]	1.8
SWLAYPDSVP (C-terminal amide if made in house) [SWLA-10mer]	39
YSAYPDSVPC (free C-terminal cysteine thiol; C-terminal amide if made in house) [YSA-C-10mer (monomeric)]	5.2
SWLAYPDSVPMMS (C-terminal amide if made in house) [SWLA-13mer]	6.5

The next lines start with the values.

IC50 [µM]	Binder
> 100	YSSYPDSVPMMS (C-terminal amide if made in house) [YSS-12mer]
3.7	SWLAYPDSVPC (free C-terminal cysteine thiol; C-terminal amide if made in house) [SWLA-C-11mer]
